Measured values published in article PMC2596940.
Read-outs that look alike come from different tables or passages of the source.

Substance | other (SUMOylation at K587) | other (SUMOylation at K595)
amyloid precursor protein (APP): K587R | increases | –
amyloid precursor protein (APP): K595R | – | increases
amyloid precursor protein (APP): K587R/K595R | increases | increases
